In patent US20080193373A1:

Tests used:
[1] = target: SA-B3/OmpA fusion protein (E. coli OmpA with streptavidin binding ligand peptide SA-B3 inserted) (Escherichia coli); test: magnetic separation (µMACS column) of a mixed E. coli Top10 culture with streptavidin-coated iron nanoparticles; counted as CFU on plates
[2] = target: SA-B3/OmpA fusion protein (E. coli OmpA with streptavidin binding ligand peptide SA-B3 inserted) (Escherichia coli); test: magnetic separation (µMACS column) of a mixed E. coli Top10 culture with streptavidin-coated iron nanoparticles; input mix was about 47% OmpA+/SA-B3+ and 53% OmpA+LUX+; counted as CFU on plates

Chain of SA-B3/OmpA fusion protein (E. coli OmpA with streptavidin binding ligand peptide SA-B3 inserted) (Escherichia coli) (chain, as listed by the source limits assumed): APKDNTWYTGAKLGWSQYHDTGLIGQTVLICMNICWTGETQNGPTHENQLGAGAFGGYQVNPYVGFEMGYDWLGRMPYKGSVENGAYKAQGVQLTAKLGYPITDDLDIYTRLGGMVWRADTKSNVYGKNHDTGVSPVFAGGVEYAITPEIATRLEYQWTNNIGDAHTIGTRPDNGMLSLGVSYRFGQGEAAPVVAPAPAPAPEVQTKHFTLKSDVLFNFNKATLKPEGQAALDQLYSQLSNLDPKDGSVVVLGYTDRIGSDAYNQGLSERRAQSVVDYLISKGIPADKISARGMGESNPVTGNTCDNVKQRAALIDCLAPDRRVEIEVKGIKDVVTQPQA

Substance: Streptavidin-coated iron-nanoparticles (from UniProt P22629 37-163)
- proportion of SA-B3-expressing bacteria lost on the columns and while washing [1]: 7%
- proportion of bacteria expressing SA-B3 after magnetic separation [2]: 92%
